Laboratory results reported in US20190177704A1, “MODIFIED LUCIFERASE” (RIKEN, priority 2016, published 2019).

B1: Luc2: luciferase derived from Photinus pyralis consisting of an amino acid sequence represented by SEQ ID NO: 1 (protein, listed as Photinus pyralis)
chain: MEDAKNIKKGPAPFYPLEDGTAGEQLHKAMKRYALVPGTIAFTDAHIEVDITYAEYFEMSVRLAEAMKRYGLNTNHRIVVCSENSLQFFMPVLGALFIGVAVAPANDIYNERELLNSMGISQPTVVFVSKKGLQKILNVQKKLPIIQKIIIMDSKTDYQGFQSMYTFVTSHLPPGFNEYDFVPESFDRDKTIALIMNSSGSTGLPKGVALPHRTACVRFSHARDPIFGNQIIPDTAILSVVPFHHGFGMFTTLGYLICGFRVVLMYRFEEELFLRSLQDYKIQSALLVPTLFSFFAKSTLIDKYDLSNLHEIASGGAPLSKEVGEAVAKRFHLPGIRQGYGLTETTSAILITPEGDDKPGAVGKVVPFFEAKVVDLDTGKTLGVNQRGELCVRGPMIMSGYVNNPEATNALIDKDGWLHSGDIAYWDEDEHFFIVDRLKSLIKYKGYQVAPAELESILLQHPNIFDAGVAGLPDDDAGELPAAVVVLEHGKTMTEKEIVDYVASQVTTAKKLRGGVVFVDEVPKGLTGKLDARKIREILIKAKKGGKIAV
B2: N229H_S347N: luc2 variant with N229H and S347N mutations (SEQ ID NO: 3) (protein)
chain: MEDAKNIKKGPAPFYPLEDGTAGEQLHKAMKRYALVPGTIAFTDAHIEVDITYAEYFEMSVRLAEAMKRYGLNTNHRIVVCSENSLQFFMPVLGALFIGVAVAPANDIYNERELLNSMGISQPTVVFVSKKGLQKILNVQKKLPIIQKIIIMDSKTDYQGFQSMYTFVTSHLPPGFNEYDFVPESFDRDKTIALIMNSSGSTGLPKGVALPHRTACVRFSHARDPIFGHQIIPDTAILSVVPFHHGFGMFTTLGYLICGFRVVLMYRFEEELFLRSLQDYKIQSALLVPTLFSFFAKSTLIDKYDLSNLHEIASGGAPLSKEVGEAVAKRFHLPGIRQGYGLTETTNAILITPEGDDKPGAVGKVVPFFEAKVVDLDTGKTLGVNQRGELCVRGPMIMSGYVNNPEATNALIDKDGWLHSGDIAYWDEDEHFFIVDRLKSLIKYKGYQVAPAELESILLQHPNIFDAGVAGLPDDDAGELPAAVVVLEHGKTMTEKEIVDYVASQVTTAKKLRGGVVFVDEVPKGLTGKLDARKIREILIKAKKGGKIAV
modifications: Modified Luciferase

Key:
Format in all cases: cell-based
[1] = Emission intensity of luciferase-expressing HeLa S3 cells with AkaLumine; conditions: for relative emission intensity, AKA: emission intensity of D-luciferin defined as 1
Procedure: (§1) A plasmid pcDNA3 was treated with use of BamHI and EcoRI, and genes encoding the respective luciferases above were each inserted into the plasmid pcDNA3 to produce plasmids for transfection.
(§2) HeLa S3 cells were used as mammalian cells to be transfected. For each of the luciferases above, HeLa S3 cells which had been cultured in D-MEM (low glucose, containing 10% FBS and 1% penicillin streptomycin, Wako Pure Chemical Industries, Ltd.) and were in an 80% confluent state were mixed with a transfection reagent (Polyethylenimine, Linear (MW 25,000, Polysciences, Inc)) and the plasmid for transfection (0.3 μg) to conduct transfection.
(§3) 24 hours after the transfection, the cells were dissociated through trypsinization, and were suspended in DMEM/F12 (10% FBS, gibco). Subsequently, centrifugation was conducted to remove the supernatant, and then the cells were resuspended in 1 mL DMEM/F12 so as to be used as luciferase-expressing cells.
(§4) In 1.5 mL Eppendorf tube, 20 μL of the produced luciferase-expressing cells and 80 μL of a substrate solution (prepared with pH 7.4 PBS) were mixed, and light emission from the obtained mixture was measured for one minute (with use of a luminometer AB-2280 manufactured by ATTO Corporation). An integrated value of the values thus measured within one minute was defined as the emission intensity.
(§5) As the substrate solution, AkaLumine or D-luciferin (80 μM each) was added. Results of the measurement of emission intensity are shown below in Table 2 as relative values with respect to 1.0 which is an emission intensity obtained in a case where AkaLumine was added to a sample of luc2.
(§6) Subsequently, with use of D-luciferin, AkaLumine, AkaLumine-OH, 6-AkaLumine, 0-AkaLumine, monoene NMe2, monoene NH2, monoene OH, and biphenyl as substrates, specificity to each of these substrates was evaluated. The substrates are respectively represented by the following chemical formulae. Each substrate solution contains a single kind of substrate.
(§7) Tables 3 through 8 show results of relative emission intensities in a case where the emission intensity of D-luciferin is defined as 1.

[2] = Emission intensity of luciferase-expressing HeLa S3 cells with D-luciferin; conditions: for relative emission intensity, Dluc: emission intensity of D-luciferin defined as 1
Procedure: as §1, §2, §3, §4, §5, §6, §7

[3] = Emission intensity of luciferase-expressing HeLa S3 cells with AkaLumine-OH; conditions: emission intensity of D-luciferin defined as 1
Procedure: as §1, §2, §3, §4, §6, §7

[4] = Emission intensity of luciferase-expressing HeLa S3 cells with 6-AkaLumine; conditions: emission intensity of D-luciferin defined as 1
Procedure: as §1, §2, §3, §4, §6, §7

[5] = Emission intensity of luciferase-expressing HeLa S3 cells with 0-AkaLumine; conditions: emission intensity of D-luciferin defined as 1
Procedure: as §1, §2, §3, §4, §6, §7

[6] = Emission intensity of luciferase-expressing HeLa S3 cells with monoene NMe2; conditions: emission intensity of D-luciferin defined as 1
Procedure: as §1, §2, §3, §4, §6, §7

[7] = Emission intensity of luciferase-expressing HeLa S3 cells with monoene NH2; conditions: emission intensity of D-luciferin defined as 1
Procedure: as §1, §2, §3, §4, §6, §7

[8] = Emission intensity of luciferase-expressing HeLa S3 cells with monoene OH; conditions: emission intensity of D-luciferin defined as 1
Procedure: as §1, §2, §3, §4, §6, §7

[9] = Emission intensity of luciferase-expressing HeLa S3 cells with biphenyl; conditions: emission intensity of D-luciferin defined as 1
Procedure: as §1, §2, §3, §4, §6, §7

Molecule | relative emission intensity, AKA ([1]; HeLa S3 cells) | AkaLumine/D-luciferin ([1]; ratio of relative emission intensities, Table 2) | AkaLumine emission intensity, relative value ([1]; relative to 1.0 = emission intensity of luc2 with AkaLumine, 80 μM substrate, integrated over one minute, HeLa S3 cells) | relative emission intensity, Dluc [2] | D-luciferin emission intensity, relative value ([2]; relative to 1.0 = emission intensity of luc2 with AkaLumine, 80 μM substrate, integrated over one minute) | relative emission intensity, AKA-OH [3] | relative emission intensity, 6-AKA [4] | relative emission intensity, O-AKA [5] | relative emission intensity, monoNMe2 [6] | relative emission intensity, monoNH2 [7] | relative emission intensity, monoOH [8] | relative emission intensity, biph [9]
B1 | 2.6 × 10^−1 | 1.8 | 1.0 | 1.0 | 5.5 × 10^−1 | not detected | 1.6 × 10^−1 | 8.4 × 10^−3 | 1.1 × 10^−1 | 3.0 × 10^−3 | 1.8 × 10^−3 | 1.4 × 10^−2
B2 | 1.7 × 10^3 | – | – | 1.0 | – | 0.9 | 8.5 × 10^2 | 6.3 | – | 4.3 × 10^−1 | not detected | 4.9
